Test results as given in patent US20030165488A1.
Read-outs that look alike come from different tables or passages of the source.

Tests used:
[1] = test system: T1, ΔCARD caspase-12 (RIK-5), 6-His fusion protein expressed in E. coli
T1 sequence: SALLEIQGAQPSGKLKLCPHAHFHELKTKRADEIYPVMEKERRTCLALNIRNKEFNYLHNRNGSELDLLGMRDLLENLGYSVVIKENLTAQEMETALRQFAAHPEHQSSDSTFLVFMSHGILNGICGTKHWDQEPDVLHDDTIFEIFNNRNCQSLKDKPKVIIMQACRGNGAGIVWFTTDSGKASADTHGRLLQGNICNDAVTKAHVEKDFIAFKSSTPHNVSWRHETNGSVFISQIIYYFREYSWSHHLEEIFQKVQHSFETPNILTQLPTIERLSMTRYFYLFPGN

[2] = test system: T2, hCaspase-12 (recombinant human caspase-12 containing the Ser-205 to Gly mutation), 6-His fusion protein expressed in E. coli
T2 sequence: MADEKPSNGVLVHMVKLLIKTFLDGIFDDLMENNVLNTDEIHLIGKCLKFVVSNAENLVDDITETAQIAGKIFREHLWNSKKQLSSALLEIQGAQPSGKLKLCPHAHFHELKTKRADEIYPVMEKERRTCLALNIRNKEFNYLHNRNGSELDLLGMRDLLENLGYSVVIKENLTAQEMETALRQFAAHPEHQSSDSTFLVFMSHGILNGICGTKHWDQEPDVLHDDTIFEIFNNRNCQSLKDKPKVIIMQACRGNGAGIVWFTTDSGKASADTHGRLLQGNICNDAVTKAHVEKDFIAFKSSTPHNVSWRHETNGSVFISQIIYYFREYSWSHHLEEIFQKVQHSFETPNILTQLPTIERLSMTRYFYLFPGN

[3] = molecular target: DEVD-R110 substrate (Homogeneous Caspase Assay, Roche Biochemicals); test: cell-based or functional assay
[4] = molecular target: T3, DEVD-R110 substrate (Homogeneous Caspase Assay, Roche Biochemicals)
T3 chain: DEVD

[5] = molecular target: T4, procaspase-3 immunoprecipitated from SH-EP cell lysates, P42574
T4 chain: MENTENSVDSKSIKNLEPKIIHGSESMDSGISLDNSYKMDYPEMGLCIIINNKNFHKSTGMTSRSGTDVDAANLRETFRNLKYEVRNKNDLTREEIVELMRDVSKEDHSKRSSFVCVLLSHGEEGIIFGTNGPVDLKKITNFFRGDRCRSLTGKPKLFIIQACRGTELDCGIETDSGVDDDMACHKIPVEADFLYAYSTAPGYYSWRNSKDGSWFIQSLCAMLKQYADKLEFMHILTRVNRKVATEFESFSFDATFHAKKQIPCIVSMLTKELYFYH

calpain II (Calbiochem)
cleavage of human caspase-12, Western blot [1]: calpain II cleaves both hCaspase-12 and the ?CARD variant and that this cleavage is calcium dependent | cleavage of human caspase-12, Western blot [2]: calpain II cleaves both hCaspase-12 and the ?CARD variant and that this cleavage is calcium dependent

control (non-caspase protein) preparation
Measured fluorescence intensity (RFU), free rhodamine-110 released from DEVD-R110 [3]: 31 RFU

B1: hCaspase-12 (recombinant human caspase-12 containing the Ser-205 to Gly mutation), 6-His fusion protein expressed in E. coli (protein)
chain: T2 sequence
Measured fluorescence intensity (RFU), free rhodamine-110 released from DEVD-R110 [4]: 807 for hCaspase-12 | procaspase-3 processing, Western blot with antibody to full-length caspase-3 [5]: when procaspase-3 was incubated with recombinant human caspase-12 or the ?CARD variant, lower molecular weight bands indicative of cleaved mature subunits were observed

B2: ΔCARD caspase-12 (RIK-5), 6-His fusion protein expressed in E. coli (protein)
chain: T1 sequence
Measured fluorescence intensity (RFU), free rhodamine-110 released from DEVD-R110 [4]: 445 for ?CARD
